{"source": "patent US20030028002A1", "about": "“Cyclin D binding factor, and uses thereof” (published 2003)", "binders": {"B1": {"name": "ARF DMP1/Ets site oligo 23 bp (dsDNA)", "DNA 1": "AATTGGGACCCCGGATGCGGCAG", "DNA 2": "CTGCCGCATCCGGGGTCCCAATT"}}, "key": {"Ets1 DNA-binding domain": {"target": "T1, Ets1 DNA-binding domain (UniProt P14921 P14921:335-415)", "T1 sequence": "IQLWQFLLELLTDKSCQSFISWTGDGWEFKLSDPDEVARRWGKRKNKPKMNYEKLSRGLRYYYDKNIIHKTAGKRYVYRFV", "test": "EMSA", "protocol": "(§1) Electrophoretic mobility shift assay (EMSA). Recombinant DMP1 protein was prepared in Sf9 cells [Hirai and Sherr, Mol. Cell. Biol. 16:6457-6467 (1996)]. Purified bacterial proteins representing the Ets1 DNA binding domain or full-length Ets1 [Inoue, et al., J. Biol. Chem. 273:29188-29194 (1998)] were used. EMSAs were performed [Inoue and Sherr, Mol. Cell. Biol. 18:1590-1600 (1998)] using either a 281-bp genomic fragment (−225 to +56) or double-stranded oligonucleotides containing the DMP1/Ets site obtained by annealing oligonucleotide 5′-[…]-3′ (sense strand SEQ ID NO:41); DMP1/Ets consensus sequence underlined) with a complementary antisense strand. For competition experiments, a 200-fold excess of unlabelled oligonucleotides was added to reaction mixtures before the probe. To verify the identity of the proteins in shifted complexes, reaction mixtures were incubated with control nonimmune rabbit serum (NRS), serum AF [Hirai and Sherr, Mol. Cell. Biol. 16:6457-6467 (1996)] and M-10 (both to DMP1 carboxylterminal epitopes), S-19 (DMP1 N-terminus), or C-20 (Ets1 C-terminus) before electrophoresis. M-10, S-19, and C-20 were from Santa Cruz Biotechnology."}, "Ets1 full length": {"target": "T2, Ets1 full length (UniProt P14921 P14921:1-441)", "T2 sequence": "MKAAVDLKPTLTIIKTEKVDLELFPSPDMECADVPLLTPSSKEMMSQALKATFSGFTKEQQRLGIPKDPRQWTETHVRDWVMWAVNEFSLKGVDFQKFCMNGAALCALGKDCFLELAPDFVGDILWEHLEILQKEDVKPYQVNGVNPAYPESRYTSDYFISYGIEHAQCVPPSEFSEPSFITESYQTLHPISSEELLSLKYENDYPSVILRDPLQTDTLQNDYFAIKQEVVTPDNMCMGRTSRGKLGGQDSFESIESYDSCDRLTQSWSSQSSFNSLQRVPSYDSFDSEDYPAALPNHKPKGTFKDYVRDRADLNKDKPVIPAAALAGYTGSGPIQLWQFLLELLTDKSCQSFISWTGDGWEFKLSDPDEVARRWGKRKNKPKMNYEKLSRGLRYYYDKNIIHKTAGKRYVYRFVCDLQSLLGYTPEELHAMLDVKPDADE", "test": "EMSA; supershifted by Ets1 antiserum", "protocol": "as §1"}}, "data": [{"binder": "B1", "values": [{"measurement": "binding result", "setting": "Ets1 DNA-binding domain", "result": "binds"}, {"measurement": "binding result", "setting": "Ets1 full length", "result": "binds"}]}]}
